Measured values reported in the supplement of paper PMC12636428.

These sequences were tested on Saccharomyces cerevisiae (assay: transcriptional activation domain activity (GFP:mCherry ratio, weighted mean of sorted bins, harmonized to initial dataset scale) (arbitrary fluorescence ratio units); higher = stronger transcriptional activation). Details: beta-estradiol 1 µM; induction time 4 h.
Protocol: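 53-aa protein tiles (fungal proteins plus yeast TF control tiles) fused C-terminally to a DBD-estrogen-binding domain-mCherry synthetic TF, integrated in S. cerevisiae (URA3 locus) with a GFP reporter. Cells were induced with 1 uM beta-estradiol for 4 h at 30 C, FACS-sorted into 8 bins by GFP:mCherry ratio and barcodes sequenced. Activity is the read-weighted mean bin fluorescence (GFP:mCherry), averaged over barcodes (median 12); tiles under 50 reads were discarded. New active-learning values were harmonized by linear fit onto the scale of the initial (Hummel et al.) dataset. The assay saturates at low and high signal.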
With “VRVVVANMFGLVIIFLFFFMYFDDFSKEILNAVQVSQIWMYLHFPLHLCQVAF” the “transcriptional activation domain activity” value was 50400.
In the case of “MLFSTFFHFMILLCFLLLLCFFYFYDFTYLYGPPMIFYFYYFSLCLYLNKLQF”, the “transcriptional activation domain activity” value was 41600.
In the case of “LVANDIIMGIALGSHIIENSELAATWVDTIFSTWSVDGLRRMIVWLMGWPGGL”, the “transcriptional activation domain activity” value was 27800.
With “AGSGGEGADGNETRRRSSGRGRGRGRGRGGRASRGGRGGKSEGAEGFTEKAEG” the “transcriptional activation domain activity” value was 15900.
For “IRYWTWMVWVIIIGSTLAFHVWIAIYSQFDVFTFESELFYLYTTLNFWTCIVF”, the “transcriptional activation domain activity” value was 57100.
In the case of “GKKSSGKKSGSSKKTKKDKKAEKDKTAADEKEKEEVKEKETGAEGEKTPEHSE”, the “transcriptional activation domain activity” value was 37700.
With “ESAVKFENSGPFINPSRASTLLVSRDSNRIILSGTTARGKTAVFLTTGLLVES” the “transcriptional activation domain activity” value was 63200.
With “MCDLFYTHLISPLFPNMPFWVFFCRLFLLFSLLQCSFICGPFVAVLSYCWLSF” the “transcriptional activation domain activity” value was 54600.
With “MYTHALDPHDAANGLYSCLPCFYIFISTDDVARKIVLVPCIPLLKYALHAIQL” the “transcriptional activation domain activity” value was 61900.
In the case of “MVLLSRLIFVAVILSLTGCRSQLESRCMVFGYRRVLVVVVRAISSCAALLRCA”, the “transcriptional activation domain activity” value was 71100.
For “MWVLGRSWAVLSTFFLSLLRLFFCLLFLLGLDFWSGLLPFLCFFLLCSYCFSL”, the “transcriptional activation domain activity” value was 56400.
For “IDFHQHESLIGTEDAFFWFLVPLIGVVCIGVCTVLHYVVLIFTHSFRLLYSLV”, the “transcriptional activation domain activity” value was 26700.
For “MSLFFLFFFFFSSFFSFFLLLPLCSVMFMPPVLSLYGVTMGFLPPPPFFFFLF”, the “transcriptional activation domain activity” value was 37900.
In the case of “MSTWLLRVFFSTCLYIIIWFFFHSFPFLSFFLPCLCCMFFFLACCLVSLSRVL”, the “transcriptional activation domain activity” value was 35200.
In the case of “LHFCHRLLSRISSLLFCFLFYCLDVLFLSLFLLCFFFPFFFFLFFLFLFQHFA”, the “transcriptional activation domain activity” value was 54800.
For “VRYKGGLVGKHFKSLAQVMPYLIYDLVPRSVLDGWVMIGRLVVLLWHTLIEDT”, the “transcriptional activation domain activity” value was 85100.
“KISALCCVLSVFKIDDLVNDPILNKVLHLNNIYLDVLISLILRNNQPTIELMV” was tested, and the “transcriptional activation domain activity” value was 57900.
With “ICYVSLCVVISMCDLLVLWRCWVIWTALDHHLAYLVTFVPVIMLLSSFVMGTF” the “transcriptional activation domain activity” value was 44100.
“GHKAEESVPRKPSRSKSKAREAEWAPDGGEEPVSRKPSRSKAKPKAAEVEKED” was tested, and the “transcriptional activation domain activity” value was 23200.
“PDEDEVVENAEKPKRRRRAKPTEEEQNEEQQNEEDAVENAGKKKRGKRTKPTE” was tested, and the “transcriptional activation domain activity” value was 39900.
With “LPSSLLFLLPHLFPTLPLLPSIPLLTPSSSSLFFHLICLYCPPFAFWAWFWFW” the “transcriptional activation domain activity” value was 55900.
With “GARTGKDKEKEKDKEKDKGARRSSCRSWSRDRGRSRSRSPRRDRERDRERGRG” the “transcriptional activation domain activity” value was 31500.
For “RTMGKQDPYCAMRLGKEAKKTNTDRRGGQTPRWDQELRFTVHDSPDYYKLKCS”, the “transcriptional activation domain activity” value was 44300.
In the case of “MFVLYTSGWESLHFFFPSPLVSFVLCWVLTRSLYRFLEVWVAYSVCLLLFLHV”, the “transcriptional activation domain activity” value was 38600.
“HWDGVCRLFFFIYYIYFYFSMRACLLVLILCFESIVFGLVSFLVYLFSPFFFR” was tested, and the “transcriptional activation domain activity” value was 40900.
With “FPFSLLVLLIFYVFSFVFVICYMGILGAQYVYFYFSYIFDCHPLPLLRRLSFF” the “transcriptional activation domain activity” value was 36900.
In the case of “VYTDLIRIIGDTKPILLDNYHNAMRRTMSVVIGFRVFYYHNEWHRAKGFIRKA”, the “transcriptional activation domain activity” value was 38400.
“LFSCCCLLRTLGRFLLFIIFFPSLSTCSFFYFLVLFLFSFQTYFLLYLYLLSI” was tested, and the “transcriptional activation domain activity” value was 43800.
With “KEEAPAEEQEKEEKKEKVPLSDARKGRARGPQRRAPAAAKAAAAAAAAPAPAV” the “transcriptional activation domain activity” value was 34400.
In the case of “PQRLDMIHFPLIYVGCVGVLLFNPFKIFFGSARMYFLNTMWRLAFSGFYHVEF”, the “transcriptional activation domain activity” value was 40000.
In the case of “MACLVSGIGWCLLYFTCMYLLLIYYILSLFYPPLASCNSFSFFFLSFFFFAGR”, the “transcriptional activation domain activity” value was 59100.
For “LIGCCVVYSLLSSFLLIFQCIPVSLAWNRWDGEHHGHCTNLVPLTWITALLNV”, the “transcriptional activation domain activity” value was 58900.
In the case of “ESASTNTSSALNCQSYTNNQDIMDILFQVTSGSVWDEFFVRSGNGNEGESSYD”, the “transcriptional activation domain activity” value was 86700.
For “KSNDSSAEKDTRSMVFCETEKVSYTGANFGEDAARDVHCKYLVGVYSKSQKQL”, the “transcriptional activation domain activity” value was 37900.
“NLMVIVLFVGNLRLVIENIQKYGVLICIRCHDVRESDLILGLSLYFLIPCHLL” was tested, and the “transcriptional activation domain activity” value was 67300.
In the case of “EIPIQLGCIHLHSLWMTYALLYQLIYPMMMIYNLVNCIYFGSGLQIAWWMFSI”, the “transcriptional activation domain activity” value was 44200.
In the case of “PPPPPPPPPPPLSLLTTAIPPPPPPPPPLGGGPPPPPPPPPGPGGPPPPPPPP”, the “transcriptional activation domain activity” value was 30700.
With “FYGLYPDNAQTLGSAPKTPTMRLVKAYLKTILSNPESRKIFYFLVLNLSYMMV” the “transcriptional activation domain activity” value was 85300.
“MITVLSVIPLLLLLLLLLLLLLLLLLLLLISPLFRLGSLFVFCPYILFRLWWV” was tested, and the “transcriptional activation domain activity” value was 42000.
In the case of “TPFLFYRPLPPQYFCKFLLYYGGLVWWVLYSGFFFYFILGRGYRKIFLSYFCL”, the “transcriptional activation domain activity” value was 53100.
With “MYILTIIPFFKHMSFFSFFLSCFFMSLLIVLLLLLLLLFSLLLLLLFFFPRPL” the “transcriptional activation domain activity” value was 54400.
“AVLSLLCSLLNTTLKYNPASWRVPYDHVVFKDPKQILVTYCLQLLLVLILYPI” was tested, and the “transcriptional activation domain activity” value was 37500.
“FKLNTVTNLNEIDFTNIFTKSPHPHSGSTHPRQVFDQLDDCSSILFSPLTTNT” was tested, and the “transcriptional activation domain activity” value was 67700.
For “GLGKEGESYIVAMGAVSGGIIIYRRIEGGAGLVEVVRNSTAVARTTAVMIALE”, the “transcriptional activation domain activity” value was 42400.
In the case of “GKKGPGGRKGPGGRKGPGGRGGRAGGPKGRGGKGGKGMRPGAGAPPPPPPIAA”, the “transcriptional activation domain activity” value was 52600.
In the case of “TKPAEASAADKKPEEAKPAEAPAPAAAPAAAEAPKAEEKPAPAPAPTEAPKAE”, the “transcriptional activation domain activity” value was 21400.
“PFTELFRRFLFSNIRFTSKVTIISYIGTYYAIGAAWIMTTANYFAIGWFNGYL” was tested, and the “transcriptional activation domain activity” value was 46500.
With “SCLMWVVSCALFMCGQLVFFDLNYYWNLTLVSYFLELSIVLVLMFMKLWLSKR” the “transcriptional activation domain activity” value was 30400.
With “KKEPVYDSEGNEVKPTPRKRVKKEPATEEDGSESKSASKKRVKKEADAEGDSS” the “transcriptional activation domain activity” value was 17100.
In the case of “RISGRVIWSLLICHASWYLNFFIQVGVLSKRLSSPVVLCGVVSFQLLNILLIT”, the “transcriptional activation domain activity” value was 53000.
For “ITVYMVIIIFCLFQFFLFLIIVGLVPRIDTTYFGWSCWGYGRIIFSWWISGSF”, the “transcriptional activation domain activity” value was 34400.
“STTLPAVDNNNLFDAVASPLADPLCDDIAGNSLPFDNSIDLDNWRNPEAQSGL” was tested, and the “transcriptional activation domain activity” value was 71400.
In the case of “FPSLRLPFCVCLWFRLFVFFFHIGSFVLLVRLFFFFFNFGLFFLFFFLFSFFS”, the “transcriptional activation domain activity” value was 27500.
With “VDRFKEFSHFLRRNENRTPSMIVLRRLCLDVSFLLCVVGFVRILWKRSGMRRR” the “transcriptional activation domain activity” value was 62400.
With “PFSFGLFLLYLCSCLTNCMTHIVFCLCSNIQLFFRFWFFYWIDHRPLGFFLAR” the “transcriptional activation domain activity” value was 44700.
“DDNAGDGSLSSVVKVWLEGLTPSGRVEIFGRRNPPPVVRFLLLLVVSRRIGSL” was tested, and the “transcriptional activation domain activity” value was 58600.
For “DSDSEEEEEGWQLSPHDVDKVRQMLEPDEVSLQRALQTTPAMRIGMIIWLVIT”, the “transcriptional activation domain activity” value was 53000.
“MDSQDAGRVSSQGQAVKEKQRSRTGCRTCKSRKVKCDETRGGCRNCERLNLPC” was tested, and the “transcriptional activation domain activity” value was 14700.
In the case of “MLMLLGKHVLLLIKMISLMDPFQVNILLHRNNPFPAVSFFFYYSFCLFHILHF”, the “transcriptional activation domain activity” value was 55200.
With “FFFSSIFFIVFGGPGQLFFFFSILLFLYPISTFMRCIIHRVFLLFFAFFFFLF” the “transcriptional activation domain activity” value was 29400.
In the case of “MWMSLLHFHTFTIFLTFFFFFFFFFCLPPFVSLLTLFLVEIFLSWREGFLPHP”, the “transcriptional activation domain activity” value was 39400.
With “NNPDAKKARACESCRQLKVKCEPDADNPDGPCRRCAKAGRACVVTQPTRKRQK” the “transcriptional activation domain activity” value was 38000.
With “RDDGRRRNEKPQRSKNKGTSSTGSDKKKTTEKKSSSSRKTSGSQVDKKLSSKK” the “transcriptional activation domain activity” value was 37900.
In the case of “PNSTGDDPSRLRRAHRKSPGGCQSCKRRRVKCDEKVSCSNCRRRREHCHAGQQ”, the “transcriptional activation domain activity” value was 56900.
For “TGAKAPEGGKQLIVVVSSDKGLCGGIHSAVTKKTRQEYAAAPAEDKPQLIVVG”, the “transcriptional activation domain activity” value was 63400.
With “MYLFVLYLFFFIIVIRLFMLLFCVYFSVIFCYLFTLVLLLLFIIFFKLIFILL” the “transcriptional activation domain activity” value was 62600.
“ALRHRYIIGTSLCRLFIPLYFFACPYNTLFQDPNPLVWILLLYVSAQALLLLL” was tested, and the “transcriptional activation domain activity” value was 63900.
In the case of “ARYVVQYKNSLIGKHFKMLQQLGIFHLHDLCSPLLFDLWKATGELGALLWFPE”, the “transcriptional activation domain activity” value was 66700.
With “RDESLRTKDKSVSRSRSRSRARDEETDDRRERSRSADRESRREGRGRSATPQG” the “transcriptional activation domain activity” value was 34800.
“WLAHSKKKTCDVCKHPYSFTKVYATDMPSRLPPVLLLRRVAQQSFFAMLFAVR” was tested, and the “transcriptional activation domain activity” value was 37900.
With “RHAIVVKRVIRMSGKGKMSRMSALVVVGDGKGMVGFGEAKDPNAGKAGRKAFQ” the “transcriptional activation domain activity” value was 32800.
